Values of other authors in paper PMC10552185.

Biological target: RegA (Dictyostelium discoideum) (UniProt Q23917)
Sequence (Q23917 whole entry): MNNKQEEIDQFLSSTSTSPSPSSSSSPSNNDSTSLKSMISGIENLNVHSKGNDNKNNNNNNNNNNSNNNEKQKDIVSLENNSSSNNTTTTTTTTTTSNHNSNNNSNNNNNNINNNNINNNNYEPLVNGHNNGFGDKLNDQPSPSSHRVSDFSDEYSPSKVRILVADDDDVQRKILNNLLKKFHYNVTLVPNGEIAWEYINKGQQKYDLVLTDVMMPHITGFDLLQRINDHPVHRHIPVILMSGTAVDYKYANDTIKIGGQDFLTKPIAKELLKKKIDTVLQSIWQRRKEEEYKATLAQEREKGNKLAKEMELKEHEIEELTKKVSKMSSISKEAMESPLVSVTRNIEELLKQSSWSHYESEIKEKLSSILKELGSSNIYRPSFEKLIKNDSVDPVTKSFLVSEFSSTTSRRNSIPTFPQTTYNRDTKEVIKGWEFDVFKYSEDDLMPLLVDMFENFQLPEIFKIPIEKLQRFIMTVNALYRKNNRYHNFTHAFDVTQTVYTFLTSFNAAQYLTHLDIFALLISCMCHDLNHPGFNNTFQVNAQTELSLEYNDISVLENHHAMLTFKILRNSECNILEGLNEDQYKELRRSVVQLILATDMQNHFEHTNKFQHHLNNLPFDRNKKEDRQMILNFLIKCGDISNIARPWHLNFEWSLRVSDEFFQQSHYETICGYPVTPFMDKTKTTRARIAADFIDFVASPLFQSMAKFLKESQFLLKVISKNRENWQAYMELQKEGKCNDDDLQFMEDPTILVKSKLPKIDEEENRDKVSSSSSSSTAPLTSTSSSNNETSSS

PKA RIα (from UniProt P10644)
Kd: 100 nM
